Here are results for one molecule from article PMC2191977 (The Journal of Experimental Medicine, 1995).

The target of this experiment is T1, B7 QDP/LEH (Q194L, D195E, P196H) (mouse, UniProt Q00609 38-306, Q194D195P196>LEH).
T1 sequence (looked up): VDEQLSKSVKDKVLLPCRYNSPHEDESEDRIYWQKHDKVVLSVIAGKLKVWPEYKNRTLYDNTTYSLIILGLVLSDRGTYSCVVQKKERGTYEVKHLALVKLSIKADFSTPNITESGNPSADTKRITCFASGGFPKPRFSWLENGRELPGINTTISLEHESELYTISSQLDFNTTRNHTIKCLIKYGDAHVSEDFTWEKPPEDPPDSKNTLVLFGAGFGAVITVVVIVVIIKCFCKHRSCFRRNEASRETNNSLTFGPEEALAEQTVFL
The experiment in a line: flow cytometry on cells. In general terms: Flow cytometry measures light scatter and fluorescence of single cells or particles in a stream.

B1: CD28Ig (Fc fusion, mouse, UniProt P31041 20-150, looked up)
chain: NKILVKQSPLLVVDSNEVSLSCRYSYNLLAKEFRASLYKGVNSDVEVCVGNGNFTYQPQFRSNAEFNCDGDFDNETVTFRLWNLHVNHTDIYFCKIEFMYPPPYLDNERSNGTIIHIKEKHLCHTQSSPKL
In the case of B1, the “% wild-type B7 binding (normalised to anti-B7 mAb 10.16A.1)” value is 3% and the “MF (mean fluorescence, control subtracted)” value was found to be 1 MF.
